Laboratory results published in article PMC10304631 (Pharmaceutics, 2023).

Assays:
[1] = predicted log P; ref Drugbank.com and pubchem.ncbi.nlm.nih.gov (accessed on 3 January 2023); cited from earlier work
Caco-2 cells [2] = assay: PEN-mediated uptake of TAMRA-insulin by flow cytometry; type: cell-based, human; conditions: 5 µM TAMRA-insulin alone or with 20 µM PEN, 1 h, 37 °C, mean ± SD, N = 2, n = 3
Method: The controls were incubated with a buffer without CPP or insulin. The cells were kept on a shaking table (37 °C, 50 rpm) for 1 h. Hereafter, the test solutions were removed, and the cells were washed twice with cold phosphate-buffered saline (4 °C) and trypsinized for 10–15 min. Trypsinization was terminated by the addition of excess cold hHBSS (4 °C) containing 10% (v/v) FBS (hHBSS/FBS). The cells were then collected and centrifuged at 4000 rpm (1076× g, 4 °C). The supernatant was removed, and the cells were washed once with hHBSS/FBS and centrifuged again at the same conditions before suspension in hHBSS/FBS containing 0.3% (v/v) DRAQ7 as a marker of the plasma membrane’s integrity. To quench extracellular plasma membrane-associated fluorescence, a parallel experiment was performed using the same test solutions, with the addition of trypan blue (TB) at a final concentration of 0.1% (v/v) just prior to analysis.

Caco-2 cells [3] = assay: PEN-mediated uptake of TAMRA-insulin by confocal microscopy (CLSM); type: cell-based, human; conditions: undifferentiated Caco-2 cells; 5 µM TAMRA-insulin alone, pH 7.4, 1 h

Compound	Log P [1]	MFI (A.N.) of TAMRA-insulin (Caco-2 cells [2]; pH 6.5, with Trypan Blue (0.1% v/v))	MFI (A.N.) of TAMRA-insulin (Caco-2 cells [2]; pH 7.4, with Trypan Blue (0.1% v/v))	MFI (A.N.) of TAMRA-insulin (Caco-2 cells [2]; pH 7.4, without Trypan Blue)	Uptake of TAMRA-insulin (CLSM) (Caco-2 cells [3])
OC[C@@H](O)[C@@H](O)[C@H](O)[C@H](O)CO [Mannitol]	−3.7				
TAMRA-Insulin: insulin labeled with TAMRA (5/6-carboxy-tetramethyl-rhodamine succinimidyl ester)		49.6 ± 1.9 A.N.	40.8 ± 2.6 A.N.	41.2 ± 2.9 A.N.	uptake was absent
Vancomycin	−4.4				
